We go through one substance from patent publication US20120115880A1.

This assay has as its target p53 (endogenous wild-type p53 of human retinoblastoma cells and human fetal retinal cells) (human) (UniProt P04637). Put plainly: cell-based or functional assay.

p53 (endogenous wild-type p53 of human retinoblastoma cells and human fetal retinal cells) (human), sequence (P04637 whole entry): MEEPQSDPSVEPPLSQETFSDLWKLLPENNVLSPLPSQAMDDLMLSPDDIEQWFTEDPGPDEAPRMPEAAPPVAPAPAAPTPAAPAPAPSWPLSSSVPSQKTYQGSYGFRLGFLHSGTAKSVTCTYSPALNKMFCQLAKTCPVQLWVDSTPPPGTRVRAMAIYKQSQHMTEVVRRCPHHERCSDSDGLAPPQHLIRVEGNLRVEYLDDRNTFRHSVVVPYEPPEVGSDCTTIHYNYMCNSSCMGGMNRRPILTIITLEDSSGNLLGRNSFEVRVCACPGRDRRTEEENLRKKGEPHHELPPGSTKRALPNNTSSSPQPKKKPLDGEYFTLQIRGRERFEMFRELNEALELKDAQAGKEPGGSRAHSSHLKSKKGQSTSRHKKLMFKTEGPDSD

In turn, “MDMX (ectopically expressed from the FLAG-tagged MDMX cDNA)” showed a luciferase activity of the p53 reporter construct PG13 in retinoblastoma (Y79) cells of 19 fold.
